Values quoted from earlier work as cited in paper PMC10103170.
pKd: −log10 of the molar value.

Target: Ubiquitin (Homo sapiens) (UniProt P0CG48)

Sequence of ALIX V domain (Q8WUM4 360-702): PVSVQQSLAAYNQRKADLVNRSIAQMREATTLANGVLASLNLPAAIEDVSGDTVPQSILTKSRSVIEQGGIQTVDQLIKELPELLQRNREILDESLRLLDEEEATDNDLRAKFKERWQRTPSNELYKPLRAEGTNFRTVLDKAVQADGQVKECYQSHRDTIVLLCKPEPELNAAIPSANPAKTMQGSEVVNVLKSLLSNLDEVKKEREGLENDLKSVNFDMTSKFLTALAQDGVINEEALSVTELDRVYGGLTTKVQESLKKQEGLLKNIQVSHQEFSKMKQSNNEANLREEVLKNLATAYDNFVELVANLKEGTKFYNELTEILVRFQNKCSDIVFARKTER

pKd: 3.92
Substance: ALIX V domain (from UniProt Q8WUM4)
